Here are results for four molecules from US12618828B2, “Probe and method for detecting membrane-associated molecules in living cells” (priority 2021, dated 2026).

Holding throughout (type): cell-based
In assay [1] the target is T1, activated form of the G-protein Gαi1 (Gαi1(Q204L)) (Homo sapiens, UniProt P63096, Q204L).
T1 construct: expressed in transfected cells; host or cells: HEK293
The assay can be described thus: Polarization microscopy of probe in HEK293 cells, with or without cotransfected constitutively activated Gαi1(Q204L). The following applies: cotransfection of Gαi1(Q204L) plasmid, excitation polarization resolved single-photon laser scanning confocal microscopy. The source says:
A protein (SEQ ID NO:5) that includes as an anchoring moiety a fragment of the protein h-Ras, a flexible peptide linker (amino acid sequence GSGGSGG (SEQ ID NO:1)), a monomeric enhanced green fluorescent protein (meGFP) as a fluorescent moiety, and an affinity binding peptide KB1753 known to bind the activated form of the G-protein Gαi1 (Johnston C A & al., Structure. 2005 Jul. 1; 13(7):1069-80), was encoded into a DNA sequence (SEQ ID NO:6) and cloned into a mammalian expression vector (pcDNA3.1(+)) under the control of the cytomegalovirus (CMV) promoter. The resulting DNA encoding the probe of invention was transfected into HEK293 cells either alone, or along with DNA encoding the target protein of the probe.
Prior to microscopy observations, mammalian cells (HEK293) were cultured at 37° C. under an atmosphere of 95% air, 5% CO2, in Dulbecco's modified Eagle's medium with Glutamax I and high glucose (Life Technologies), supplemented with 10% fetal bovine serum. […]
The cells were observed by excitation polarization resolved single-photon laser scanning confocal microscopy, by excitation polarization resolved two-photon laser scanning microscopy, by excitation polarization resolved single-photon wide-field fluorescence microscopy, and by fluorescence polarization resolved single-photon laser scanning confocal microscopy.
(§1) In excitation polarization resolved single-photon laser scanning confocal microscopy, the cells (in the multi-well cover slip) were observed using a single-photon laser scanning confocal microscope Olympus FV1200, modified for excitation-polarization resolved microscopy. […] Fluorescence of wavelengths in the range of 510-610 nm was separated from the excitation light by a long-pass dichroic mirror (DM405/488, Olympus, Japan), diffractive grating, and an adjustable slit, and detected by a photomultiplier. […]
(§2) The resulting images were deconvolved and quantitatively analyzed by following published procedures (Bondar A & al., Communications Biology. 2021 Feb. 12; 4(1):1-2.) that rely on publicly available software tools. […]

In assay [2] the target is T2, activated form of Gαi1 (Homo sapiens, UniProt P63096).
T2 construct: expressed in transfected cells; host or cells: HEK293
T2 sequence (P63096 whole entry): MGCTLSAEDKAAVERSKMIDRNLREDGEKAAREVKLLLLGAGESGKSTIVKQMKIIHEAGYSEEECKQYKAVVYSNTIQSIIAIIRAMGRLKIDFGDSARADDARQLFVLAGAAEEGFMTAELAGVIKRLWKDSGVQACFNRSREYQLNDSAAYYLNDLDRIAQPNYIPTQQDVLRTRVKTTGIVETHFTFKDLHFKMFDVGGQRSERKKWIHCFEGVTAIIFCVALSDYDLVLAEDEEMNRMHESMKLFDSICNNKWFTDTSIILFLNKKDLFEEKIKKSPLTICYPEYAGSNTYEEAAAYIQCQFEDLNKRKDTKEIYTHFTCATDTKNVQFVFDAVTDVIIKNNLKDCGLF
Kind of assay: Polarization microscopy of probe in HEK293 cells, Gαi1 activated through the α2-adrenergic receptor by norepinephrine. The following applies: HEK293 cells cotransfected with Gαi1, Gβ1, Gγ2 and α2-adrenergic receptor; 10 μM norepinephrine; excitation polarization resolved single-photon confocal microscopy. The procedure:
(§3) Prior to microscopy observations, mammalian cells (HEK293) were cultured at 37° C. under an atmosphere of 95% air, 5% CO2, in Dulbecco's modified Eagle's medium with Glutamax I and high glucose (Life Technologies), supplemented with 10% fetal bovine serum. Cells were plated on 8-chamber microscopy slides (p-Slides, Ibidi GmbH, Germany). Transfections were carried out using 0.2 μg of plasmid DNA and Lipofectamine 2000 (Life Technologies), according to the protocol of the manufacturer. In cotransfections, 0.2 μg of each of the plasmids were used. Microscopy experiments were carried out 48 h after transfection. […]
as §1, §2

For assay [3], the target named is T3, GβGγ dimer (Homo sapiens, UniProt P59768+P62873).
T3 construct: expressed in transfected cells; host or cells: HEK293
T3 sequence (P62873 2-340 limits assumed): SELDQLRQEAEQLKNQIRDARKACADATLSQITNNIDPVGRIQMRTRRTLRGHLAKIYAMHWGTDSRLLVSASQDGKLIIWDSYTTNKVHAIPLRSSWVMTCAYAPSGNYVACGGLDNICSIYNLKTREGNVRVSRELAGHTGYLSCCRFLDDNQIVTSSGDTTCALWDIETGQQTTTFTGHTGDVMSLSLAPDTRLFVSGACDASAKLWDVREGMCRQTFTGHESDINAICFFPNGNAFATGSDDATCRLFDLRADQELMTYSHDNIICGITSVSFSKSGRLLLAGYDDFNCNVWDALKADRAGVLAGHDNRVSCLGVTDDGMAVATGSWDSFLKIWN
T3 sequence (P59768 2-68 limits assumed): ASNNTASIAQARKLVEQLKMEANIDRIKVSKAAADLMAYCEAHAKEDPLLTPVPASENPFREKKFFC
Kind of assay: Polarization microscopy of probe in HEK293 cells, with or without cotransfected GβGγ dimer. The following applies: cotransfection of plasmids encoding the, excitation polarization resolved single-photon confocal microscopy. As to the method:
as §3, §1, §2

T1 sequence (P63096 whole entry Q204L): as the sequence (P63096 whole entry) above, with Q204L counted along it

B1: KB1753-SNAP-GSGGSGG-hRas (protein)
chain: MSSRGYYHGIWVGEEGRLSRDKDCEMKRTTLDSPLGKLELSGCEQGLHRIIFLGKGTSAADAVEVPAPAAVLGGPEPLMQATAWLNAYFHQPEAIEEFPVPALHHPVFQQESFTRQVLWKLLKVVKFGEVISYSHLAALAGNPAATAAVKTALSGNPVPILIPCHRVVQGDLDVGGYEGGLAVKEWLLAHEGHRLGKPGLGSGGSGGCMSCKCVLS
modifications: SNAP labelled with SNAP Cell 430; KB1753-SNAP-GSGGSGG-hRas
notes: Protein probe: hRas fragment anchor, GSGGSGG linker, SNAP fluorogenic protein (labelled with SNAP Cell 430), peptide KB1753
For the molecule B1, the “linear dichroism of the fluorescent moiety of the probe in presence of its target molecule compared with absence” value in assay [1] is given as “statistically significantly higher”.

B2: KB1753-mScarlet-GSGGSGG-hRas (protein)
chain: MSSRGYYHGIWVGEEGRLSRVSKGEAVIKEFMRFKVHMEGSMNGHEFEIEGEGEGRPYEGTQTAKLKVTKGGPLPFSWDILSPQFMYGSRAFTKHPADIPDYYKQSFPEGFKWERVMNFEDGGAVTVTQDTSLEDGTLIYKVKLRGTNFPPDGPVMQKKTMGWEASTERLYPEDGVLKGDIKMALRLKDGGRYLADFKTTYKAKKPVQMPGAYNVDRKLDITSHNEDYTVVEQYERSEGRHSTGGMDELYKGSGGSGGCMSCKCVLS
modifications: KB1753-mScarlet-GSGGSGG-hRas
notes: Protein probe: hRas fragment anchor, GSGGSGG linker, mScarlet, peptide KB1753
Take B2: the “linear dichroism of the fluorescent moiety of the probe in presence of its target molecule compared with absence” value in assay [1] is listed as “statistically significantly higher”. For the same molecule, the “linear dichroism of the fluorescent moiety of the probe in presence of activated Gαi1 compared with absence” value in assay [2] is given as “statistically significantly higher”.

B3: KB1753-HALO-GSGGSGG-hRas (protein)
chain: MSSRGYYHGIWVGEEGRLSRAEIGTGFPFDPHYVEVLGERMHYVDVGPRDGTPVLFLHGNPTSSYVWRNIIPHVAPTHRCIAPDLIGMGKSDKPDLGYFFDDHVRFMDAFIEALGLEEVVLVIHDWGSALGFHWAKRNPERVKGIAFMEFIRPIPTWDEWPEFARETFQAFRTTDVGRKLIIDQNVFIEGTLPMGVVRPLTEVEMDHYREPFLNPVDREPLWRFPNELPIAGEPANIVALVEEYMDWLHQSPVPKLLFWGTPGVLIPPAEAARLAKSLPNCKAVDIGPGLNLLQEDNPDLIGSEIARWLSTLEISGGSGGSGGCMSCKCVLS
modifications: HALO labelled with JF-549; KB1753-HALO-GSGGSGG-hRas
notes: Protein probe: hRas fragment anchor, GSGGSGG linker, HALO fluorogenic protein (labelled with JF-549), peptide KB1753
Consider B3, for which the “linear dichroism of the fluorescent moiety of the probe in presence of its target molecule compared with absence” value in assay [1] is reported as “statistically significantly lower”. In addition, in assay [2], the “linear dichroism of the fluorescent moiety of the probe in presence of activated Gαi1 compared with absence” value is “statistically significantly lower”.

B4: GAP43-SSGSSGTG-HALO-GRK2ct (protein)
chain: MLCCMRRTKQVEKNDEDQNSSGSSGTGAEIGTGFPFDPHYVEVLGERMHYVDVGPRDGTPVLFLHGNPTSSYVWRNIIPHVAPTHRCIAPDLIGMGKSDKPDLGYFFDDHVRFMDAFIEALGLEEVVLVIHDWGSALGFHWAKRNPERVKGIAFMEFIRPIPTWDEWPEFARETFQAFRTTDVGRKLIIDQNVFIEGTLPMGVVRPLTEVEMDHYREPFLNPVDREPLWRFPNELPIAGEPANIVALVEEYMDWLHQSPVPKLLFWGTPGVLIPPAEAARLAKSLPNCKAVDIGPGLNLLQEDNPDLIGSEIARWLSTLEISGGSSRNFPLVISERWQQEVAETVYEAVNADTDKIEARKRAKNKQLGHEEDYALGRDCIVHGYMLKLGNPFLTQWQRRYFYLFPNRLEWRGEGESRQSLLTMEQIVSVEETQIKDKKCILLRIKGGKQFVLQCESDPEFVQWKKELTETFMEAQRLLRRAPKFLNKSRSAVVELSKPPLCHRNSNGLGSRG
modifications: HALO labelled with JF-549; GAP43-SSGSSGTG-HALO-GRK2ct
notes: Protein probe: GAP43 fragment anchor, SSGSSGTG linker, HALO (labelled with JF-549), GRK2 fragment with PH domain
For B4, in assay [3], the “linear dichroism of the fluorescent moiety of the probe in presence of its target molecule compared with absence” value is “statistically significantly higher”.
